Biological target: human BCMA-His (human) (UniProt Q02223)
Assay: BLI (Octet), 1:1 fit

Chain of JNJ-BCMA/CD3 (Teclistamab) (bispecific antibody) (heavy): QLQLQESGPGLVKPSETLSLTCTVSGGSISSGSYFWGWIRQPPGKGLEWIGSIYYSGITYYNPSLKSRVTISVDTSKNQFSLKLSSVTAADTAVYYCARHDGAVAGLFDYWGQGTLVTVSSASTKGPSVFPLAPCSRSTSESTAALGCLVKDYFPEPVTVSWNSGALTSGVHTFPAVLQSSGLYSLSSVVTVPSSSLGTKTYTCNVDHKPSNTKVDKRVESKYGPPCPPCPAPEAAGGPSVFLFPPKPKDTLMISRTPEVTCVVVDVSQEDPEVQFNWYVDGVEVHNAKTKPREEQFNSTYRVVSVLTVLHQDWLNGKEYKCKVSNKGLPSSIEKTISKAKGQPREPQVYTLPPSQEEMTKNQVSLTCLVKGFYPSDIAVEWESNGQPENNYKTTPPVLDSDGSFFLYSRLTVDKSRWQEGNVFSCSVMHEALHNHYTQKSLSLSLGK
Chain of JNJ-BCMA/CD3 (Teclistamab) (bispecific antibody) (light): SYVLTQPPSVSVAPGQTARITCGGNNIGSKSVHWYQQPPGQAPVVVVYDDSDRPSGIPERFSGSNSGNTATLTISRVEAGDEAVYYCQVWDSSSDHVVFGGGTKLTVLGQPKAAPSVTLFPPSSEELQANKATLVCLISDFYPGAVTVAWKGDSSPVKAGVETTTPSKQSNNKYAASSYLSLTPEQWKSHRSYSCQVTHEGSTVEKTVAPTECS
Chain of JNJ-BCMA/CD3 (Teclistamab) (bispecific antibody) (heavy): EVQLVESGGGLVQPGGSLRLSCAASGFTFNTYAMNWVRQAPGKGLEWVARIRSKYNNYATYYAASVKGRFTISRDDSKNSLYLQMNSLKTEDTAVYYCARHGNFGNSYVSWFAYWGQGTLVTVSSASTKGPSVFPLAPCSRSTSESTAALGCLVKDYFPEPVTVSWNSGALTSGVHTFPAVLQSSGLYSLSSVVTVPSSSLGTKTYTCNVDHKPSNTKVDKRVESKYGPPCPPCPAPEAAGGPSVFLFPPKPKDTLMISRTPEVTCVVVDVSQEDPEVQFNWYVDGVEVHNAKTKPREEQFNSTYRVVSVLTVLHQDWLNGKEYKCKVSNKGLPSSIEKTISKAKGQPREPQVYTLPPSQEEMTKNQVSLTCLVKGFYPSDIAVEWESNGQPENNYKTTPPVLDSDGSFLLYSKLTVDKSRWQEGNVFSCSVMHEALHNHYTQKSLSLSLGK
Chain of JNJ-BCMA/CD3 (Teclistamab) (bispecific antibody) (light): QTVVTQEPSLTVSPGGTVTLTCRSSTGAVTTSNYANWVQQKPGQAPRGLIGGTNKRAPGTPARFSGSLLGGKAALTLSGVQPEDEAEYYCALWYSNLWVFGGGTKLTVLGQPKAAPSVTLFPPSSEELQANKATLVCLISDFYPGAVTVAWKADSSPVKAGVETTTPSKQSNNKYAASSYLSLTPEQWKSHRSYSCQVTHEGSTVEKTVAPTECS
Chain of REGN-BCMA/CD3 (REGN5458) (bispecific antibody) (VH): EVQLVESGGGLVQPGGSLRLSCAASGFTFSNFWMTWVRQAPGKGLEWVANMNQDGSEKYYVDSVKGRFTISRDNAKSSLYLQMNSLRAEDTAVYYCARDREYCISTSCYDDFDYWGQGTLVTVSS
Chain of REGN-BCMA/CD3 (REGN5458) (bispecific antibody) (VL): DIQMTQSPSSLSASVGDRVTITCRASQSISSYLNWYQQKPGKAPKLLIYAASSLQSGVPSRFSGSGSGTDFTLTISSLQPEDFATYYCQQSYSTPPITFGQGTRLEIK
Chain of REGN-BCMA/CD3 (REGN5458) (bispecific antibody) (chain): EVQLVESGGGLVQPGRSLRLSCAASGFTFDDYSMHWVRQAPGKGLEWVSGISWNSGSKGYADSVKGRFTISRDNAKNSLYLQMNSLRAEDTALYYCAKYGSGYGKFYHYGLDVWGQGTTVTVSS
Chain of human BCMA-His (human) (Q02223 1-54): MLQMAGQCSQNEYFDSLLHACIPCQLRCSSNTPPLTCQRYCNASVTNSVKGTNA

Substance | Kd | koff | kon
JNJ-BCMA/CD3 (Teclistamab) (bispecific antibody) | 435 pM | 0.000722 s⁻¹ | 1.66e+06 M⁻¹ s⁻¹
REGN-BCMA/CD3 (REGN5458) (bispecific antibody) | 1130 pM | 0.000792 s⁻¹ | 701000 M⁻¹ s⁻¹
Roche-BCMA/CD3 (Alnuctamab) (bispecific antibody) | 205 pM | 0.000262 s⁻¹ | 1.28e+06 M⁻¹ s⁻¹

From patent EP4725970A1
